Reference: patent US10640563B2, “Anti-B7-H3 antibodies and antibody drug conjugates” (AbbVie Inc., priority 2016, dated 2020)
Marks after values point to notes of the source that are not given here.

Columns and labels:
EBC1 = assay: In vivo xenograft model of non-small cell lung cancer EBC1; settings: 7.5 mg/kg/day, QDx1/IV
Procedure: (§1) The anti-tumor activity was assessed as monotherapy and in combination with docetaxel (H1650, H1299, H1975, and EBC1).

H1650 = assay: In vivo xenograft model H1650; design: species or system mouse; settings: NCI-H1650, 7.5 mg/kg/day
H1299 = assay: In vivo xenograft model of non-small cell lung cancer H1299; settings: NCI-H1299; 7.5 mg/kg/day, QDx1/IV
Procedure: as §1

H1975 = assay: In vivo xenograft model of non-small cell lung cancer H1975; settings: NCI-H1975; 7.5 mg/kg/day, QDx1/IV
Procedure: as §1

[1] = Aggregation of conjugates by SEC; type: physicochemical; settings: Table 17; CZ conjugates of huAb3v2 variants
H847 cells = assay: Cell cytotoxicity of ADCs in H847 cells; type: cell-based; settings: Table 17; CZ conjugates; read-out: Cytotoxicity (H847 Cell line IC50)
Text: These new anti-B7-H3 antibodies were further characterized for binding by SPR and conjugated to the Bcl-xLi synthon CZ and assessed for cell cytotoxicity (using the methods described in Example 7).

NCI-H146 cells = assay: In vivo xenograft model of small cell lung cancer (NCI-H146); design: species or system mice; settings: Table 23; 6 mg/kg/IP/QDx1
B7-H3 = target: T1, B7-H3 (Homo sapiens, UniProt Q5ZPR3); assay: Affinity of naked mAbs by SPR (Biacore); type: binding; settings: Table 17
T1 construct: His tag (6xHis) (C); made in house
T1 sequence (Q5ZPR3 with tags, fused parts or gaps): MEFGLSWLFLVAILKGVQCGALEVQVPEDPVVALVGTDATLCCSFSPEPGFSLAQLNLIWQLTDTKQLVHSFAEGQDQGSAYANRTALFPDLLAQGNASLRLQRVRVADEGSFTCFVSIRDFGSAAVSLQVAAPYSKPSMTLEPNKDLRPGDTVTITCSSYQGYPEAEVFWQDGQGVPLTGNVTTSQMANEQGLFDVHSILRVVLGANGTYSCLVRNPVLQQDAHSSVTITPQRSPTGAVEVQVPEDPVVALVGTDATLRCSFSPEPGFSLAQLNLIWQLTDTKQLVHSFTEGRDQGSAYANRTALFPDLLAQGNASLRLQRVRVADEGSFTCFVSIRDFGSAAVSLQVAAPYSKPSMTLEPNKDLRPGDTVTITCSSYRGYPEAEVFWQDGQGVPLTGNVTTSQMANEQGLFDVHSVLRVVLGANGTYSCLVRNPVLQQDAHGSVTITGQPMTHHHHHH
Procedure: The parental chAb18 from which the variants were derived was also tested as a comparator.

[2] = target: T2, soluble ECD of human B7-H3 (Homo sapiens, UniProt Q5ZPR3); assay: Biacore T200 SPR binding kinetics, mAb capture; settings: Biacore T200, Fc capture of mAb, B7-H3 ECD as analyte, 1:1 binding model
T2 construct: His tag (6xHis) (C); made in house
T2 sequence (Q5ZPR3 with tags, fused parts or gaps): T1 sequence (Q5ZPR3 with tags, fused parts or gaps)
Procedure: The binding affinity of the purified anti-B7-H3 monoclonal antibodies was determined by surface […]. […] The binding kinetics were derived from SPR measurements using a Biacore T200 instrument and a mAb capture approach (as described in the materials and methods below).
Biacore T200 SPR instruments were used to measure the binding kinetics of human B7-H3 (analyte) binding to various mAbs (ligands). The assay format was Fc-based capture via immobilized anti-mouse (Fc) (Pierce 31170) or immobilized anti-human (Fc) (Pierce 31125). A standard amine coupling protocol was employed to immobilize the capture reagents via primary amines to the carboxy-methyl (CM) dextran surface of CM5 sensorchips (Biacore); capture antibodies were coupled to a level of approximately 5000 RU. For binding kinetic measurements the assay buffer was HBS-EP+ (Biacore): 10 mM Hepes, pH7.4, 150 mM NaCl, 3 mM EDTA, 0.05% polysorbate 20. During the assay, all measurements were referenced against the capture surface alone. Each assay cycle consisted of the following steps: 1) Capture of ligand to approximately 50 RU; 2) Analyte injection over both reference and test surface, 240 μL at 80 μL/min, after which the dissociation was monitored for 900 seconds at 80 μL/min; 3) Regeneration of capture surface with low pH glycine. For kinetic determinations analyte injections were 3-point, 9-fold dilution series of 900 nM, 100 nM and 11.11 nM, buffer only injections were included for secondary referencing. Data were processed and fit to a 1:1 binding model using Biacore T200 Evaluation Software to determine the binding kinetic rate constants, ka (on-rate) and kd (off-rate), and the equilibrium dissociation constant (affinity, KD).

mouse B7-H3 = target: T3, mouse B7-H3 (Mus musculus, UniProt Q8VE98); assay: FACS binding to mouse 3T12 fibroblasts expressing mouse B7-H3; settings: purified mouse hybridoma mAb; cells expressing mouse B7-H3
T3 construct: expressed in transfected cells; host or cells: mouse 3T12 fibroblasts
T3 sequence (Q8VE98 29-316): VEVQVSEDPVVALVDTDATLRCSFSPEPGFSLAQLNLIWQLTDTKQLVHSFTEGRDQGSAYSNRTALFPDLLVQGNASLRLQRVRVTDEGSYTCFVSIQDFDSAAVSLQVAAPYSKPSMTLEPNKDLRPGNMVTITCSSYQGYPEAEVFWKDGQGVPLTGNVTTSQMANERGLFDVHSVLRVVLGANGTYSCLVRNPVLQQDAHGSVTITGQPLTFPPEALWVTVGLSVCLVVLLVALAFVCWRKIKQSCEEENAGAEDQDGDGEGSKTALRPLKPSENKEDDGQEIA

[3] = tested on: soluble ECD of cyno B7-H3; assay: Biacore T200 SPR binding kinetics, mAb capture; design: species or system cynomolgus monkey; settings: Biacore T200, Fc capture of mAb, B7-H3 ECD as analyte, 1:1 binding model
Sequence of soluble ECD of cyno B7-H3 (as listed by the source): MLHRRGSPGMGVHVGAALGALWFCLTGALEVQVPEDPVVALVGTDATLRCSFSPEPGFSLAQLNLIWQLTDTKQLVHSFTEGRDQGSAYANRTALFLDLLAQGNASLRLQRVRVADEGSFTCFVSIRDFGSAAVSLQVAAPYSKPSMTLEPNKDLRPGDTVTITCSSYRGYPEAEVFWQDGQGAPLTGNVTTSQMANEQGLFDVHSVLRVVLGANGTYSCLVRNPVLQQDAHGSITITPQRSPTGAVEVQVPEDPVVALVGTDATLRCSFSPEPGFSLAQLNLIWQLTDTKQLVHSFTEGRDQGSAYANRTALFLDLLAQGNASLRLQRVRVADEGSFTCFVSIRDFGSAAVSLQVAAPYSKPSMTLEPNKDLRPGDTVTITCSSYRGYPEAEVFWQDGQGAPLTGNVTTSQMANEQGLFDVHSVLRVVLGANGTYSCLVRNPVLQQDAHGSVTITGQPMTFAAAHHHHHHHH

Molecule: CC(=O)O[C@@]12CO[C@@H]1C[C@H](O)[C@@]1(C)C(=O)[C@H](O)C3=C(C)[C@@H](OC(=O)[C@H](O)[C@@H](NC(=O)OC(C)(C)C)c4ccccc4)C[C@@](O)([C@@H](OC(=O)c4ccccc4)[C@H]21)C3(C)C [Docetaxel]
- TGD (%) (EBC1): 80%
- TGImax (%) (EBC1): 85%
- TGD (%) (H1650; IV/Q14Dx3): 158* %
- TGImax (%) (H1650; IV/Q14Dx3): 80* %
- TGD (%) (H1650; QDx1/IV): 143%
- TGImax (%) (H1650; QDx1/IV): 84%
- TGD (%) (H1299): 48%
- TGImax (%) (H1299): 87%
- TGD (%) (H1975): 77%
- TGImax (%) (H1975): 81%

B1: huAb3v2.9-CZ (conjugate)
VH: EVQLVQSGAEVKKPGSSVKVSCKASGYTFSSYWMHWVRQAPGQGLEWIGLIHPISGSTNYNEMFKNRATLTVDRSTSTAYMELSSLRSEDTAVYYCAGGGRLYFDYWGQGTTVTVSS
VL: DIVMTQSPLSLPVTPGEPASISCRSSQSLVHSNQDTYLRWYLQKPGQSPQLLIYKVSNRFSGVPDRFSGSGSGTDFTLKISRVEAEDVGVYYCSQSTHVPYTFGGGTKVEIK
- % agg by SEC [1]: 4.3%
- IC50 (H847 cells): 2.3 nM
- TGD (%) (NCI-H146 cells): 135%
- TGImax (%) (NCI-H146 cells): 94%
- Affinity of naked mAbs (Biacore, KD) (B7-H3): Poor fit

B2: Ab6 (antibody, V domains shown)
VH: QVQLQQSGAELMKPGASVKISCKATGYTFSRYWIEWVKQRPGHGLEWIGEILPGSGSTNYNEKFKGKATFTADTSSNTAYMQVSSLTSEDSAVHYCARRGYGYVPYALDYWGQGTSVTVSS
VL: EIQMTQTTSSLSASLGDRVTISCRASQDISNSLNWYQQKPDGTVNLLIYYTSRLYSGVPSRFSGSGSGTDYSLTISNLEQEDIATYFCQQGNTLPYTFGGGTKLEIK
- huB7-H3 ka [2]: 12000 M⁻¹ s⁻¹
- huB7-H3 kd [2]: 0.01 s⁻¹
- FACS Binding (EC50 nM) Mouse B7-H3 (mouse B7-H3): No binding
- cynoB7-H3 ka [3]: 28000 M⁻¹ s⁻¹
- cynoB7-H3 kd [3]: 0.012 s⁻¹

B3: Ab18: murine monoclonal Ab18 (antibody, V domains shown)
VH: QVQLQQSAAELARPGASVKMSCKASGYSFTSYTIHWVKQRPGQGLEWIGYINPNSRNTDYNQKFKDETTLTADRSSSTAYMQLISLTSEDSAVYYCARYSGSTPYWYFDVWGAGTTVTVSS
VL: QIVLTQSPAILSASPGEKVTMTCRASSSVSYMNWYQQKPGSSPKPWIYATSNLASGVPARFSVSVSGTSHSLTISRVEAEDAATYYCQQWSSNPLTFGAGTKLELK
- huB7-H3 ka [2]: 210000 M⁻¹ s⁻¹
- huB7-H3 kd [2]: 3.6e-05 s⁻¹
- FACS Binding (EC50 nM) Mouse B7-H3 (mouse B7-H3): No binding
- cynoB7-H3 ka [3]: 240000 M⁻¹ s⁻¹
- cynoB7-H3 kd [3]: 2.9e-05 s⁻¹
